Laboratory results from article PMC4005458, “Brassinosteroids control root epidermal cell fate via direct regulation of a MYB-bHLH-WD40 complex by GSK3-like kinases” (eLife, 2014).

B3: His-fused BIN2 (enzyme, Arabidopsis, UniProt Q39011 1-380, looked up)
chain: MADDKEMPAAVVDGHDQVTGHIISTTIGGKNGEPKQTISYMAERVVGTGSFGIVFQAKCLETGETVAIKKVLQDRRYKNRELQLMRVMDHPNVVCLKHCFFSTTSKDELFLNLVMEYVPESLYRVLKHYSSANQRMPLVYVKLYMYQIFRGLAYIHNVAGVCHRDLKPQNLLVDPLTHQVKICDFGSAKQLVKGEANISYICSRFYRAPELIFGATEYTTSIDIWSAGCVLAELLLGQPLFPGENAVDQLVEIIKVLGTPTREEIRCMNPHYTDFRFPQIKAHPWHKIFHKRMPPEAIDFASRLLQYSPSLRCTALEACAHPFFDELREPNARLPNGRPFPPLFNFKQEVAGSSPELVNKLIPDHIKRQLGLSFLNQSGT
notes: BIN2 (BRASSINOSTEROID … 2), GSK3-like kinase of Arabidopsis, cloned into the PET28a vector; Primers are in Supplementary file 1; also called BIN2-His; source: E. coli BL21 (DE3) pLySs, purified (Ni-NTA agarose)

Assays:
[1] = target: B3; experiment: pull-down; GST fusions bound to GST resin, BIN2-His added, 2 hr at 4°C; 10 mM phosphate buffer pH 7.4, 140 mM NaCl, 3 mM KCl, 0.1% Triton X-100; immunoblot with anti-His antibody; details: both partners purified
[2] = target: T1, GST-fused EGL3 (Arabidopsis, UniProt Q9CAD0 1-596); experiment: as above; details: both partners purified
T1 construct: also called EGL3-GST; source: E. coli BL21 (DE3) pLySs, purified (glutathione resin)
T1 sequence (looked up): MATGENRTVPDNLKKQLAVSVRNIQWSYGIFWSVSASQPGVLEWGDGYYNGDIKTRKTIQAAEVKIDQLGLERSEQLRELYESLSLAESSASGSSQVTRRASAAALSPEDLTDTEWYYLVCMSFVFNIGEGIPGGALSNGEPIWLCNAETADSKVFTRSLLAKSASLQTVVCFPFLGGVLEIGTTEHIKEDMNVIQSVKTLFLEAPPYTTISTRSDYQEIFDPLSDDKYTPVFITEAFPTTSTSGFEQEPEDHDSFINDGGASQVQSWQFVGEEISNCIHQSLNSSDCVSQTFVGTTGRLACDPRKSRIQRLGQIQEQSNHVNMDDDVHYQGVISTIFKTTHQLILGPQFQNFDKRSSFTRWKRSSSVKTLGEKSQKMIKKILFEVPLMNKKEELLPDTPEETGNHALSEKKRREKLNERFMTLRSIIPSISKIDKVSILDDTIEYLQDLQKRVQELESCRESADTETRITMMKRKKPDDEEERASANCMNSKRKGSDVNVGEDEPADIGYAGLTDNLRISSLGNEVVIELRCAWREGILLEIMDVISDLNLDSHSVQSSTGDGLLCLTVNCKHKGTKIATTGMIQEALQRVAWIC

B1: WEREWOLF (WER) fused to GST (natural protein, Arabidopsis, UniProt Q9SEI0 1-203, looked up)
chain: MRKKVSSSGDEGNNEYKKGLWTVEEDKILMDYVKAHGKGHWNRIAKKTGLKRCGKSCRLRWMNYLSPNVKRGNFTEQEEDLIIRLHKLLGNRWSLIAKRVPGRTDNQVKNYWNTHLSKKLGIKDQKTKQSNGDIVYQINLPNPTETSEETKISNIVDNNNILGDEIQEDHQGSNYLSSLWVHEDEFELSTLTNMMDFIDGHCF
notes: WER (WEREWOLF), R2R3 MYB-domain transcription factor of Arabidopsis; The methods describe the cloning of only EGL3 into pGEX4T-1; the making of WER-GST is not described; also called WER-GST; source: recombinant, purified
[1]
  binding result: binds

B2: TRANSPARENT TESTA GLABRA1 (TTG1) fused to GST (natural protein, Arabidopsis, UniProt Q9XGN1 1-341, looked up)
chain: MDNSAPDSLSRSETAVTYDSPYPLYAMAFSSLRSSSGHRIAVGSFLEDYNNRIDILSFDSDSMTVKPLPNLSFEHPYPPTKLMFSPPSLRRPSSGDLLASSGDFLRLWEINEDSSTVEPISVLNNSKTSEFCAPLTSFDWNDVEPKRLGTCSIDTTCTIWDIEKSVVETQLIAHDKEVHDIAWGEARVFASVSADGSVRIFDLRDKEHSTIIYESPQPDTPLLRLAWNKQDLRYMATILMDSNKVVILDIRSPTMPVAELERHQASVNAIAWAPQSCKHICSGGDDTQALIWELPTVAGPNGIDPMSVYSAGSEINQLQWSSSQPDWIGIAFANKMQLLRV
notes: TTG1 (TRANSPARENT TESTA GLABRA1), WD40 repeat protein of Arabidopsis; The methods describe the cloning of only EGL3 into pGEX4T-1; the making of TTG1-GST is not described; also called TTG1-GST; source: recombinant, purified
[1]
  binding result: binds

## B3
[2]
  binding result: binds
